We go through 1 molecule from publication doi:10.1101/2022.12.29.522231 (bioRxiv, 2022).

The target in experiment [1] is catalytic domain of MMP-14 residues 110-300 (human, UniProt P50281 110-300). The experiment is described as follows: enzyme inhibition assay.
The target of experiment [2] is catalytic domain of MMP-3 (WT), activated (UniProt P08254 100-272). The experiment is described as follows: enzyme inhibition assay.
Chain of catalytic domain of MMP-3 (WT), activated (P08254 100-272): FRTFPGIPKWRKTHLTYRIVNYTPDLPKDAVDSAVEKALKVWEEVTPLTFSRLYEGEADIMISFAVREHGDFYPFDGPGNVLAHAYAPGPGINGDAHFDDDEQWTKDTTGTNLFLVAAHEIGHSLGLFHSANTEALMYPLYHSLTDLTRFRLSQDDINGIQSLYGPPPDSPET

B1: WT N-TIMP2 (N-terminal domain of tissue inhibitor of metalloproteinases-2), purified (domain or fragment, human, UniProt P16035 27-153, looked up)
chain: CSCSPVHPQQAFCNADVVIRAKAVSEKEVDSGNDIYGNPIKRIQYEIKQIKMFKGPEKDIEFIYTAPSSAVCGVSLDVGGKKEYLIAGKAEGDGKMHITLCDFIVPWDTLSTTQKKSLNHRYQMGCE
Turning to B1, the Ki was 0.53 ± 0.1 nM in experiment [1] and 5.9 ± 0.7 nM in experiment [2].

One may read the Ki as a measure of affinity in units of concentration, obtained from inhibition or displacement. High values mean weaker binding, low ones tighter binding.
